B1: recombinant wild-type NUPR1 (natural protein)
chain: MATFPPATSAPQQPPGPEDEDSSLDESDLYSLAHSYLGGGGRKGRTKREAAANTNRPSPGGHERKLVTKLQNSERKKRGARR
B2: NUPR1 (detected with the anti-NUPR1 antibody in MiaPaCa-2 cells) (natural protein)
chain: B1 chain

Tests used:
PARP1-Flag = assay: proximity ligation; MiaPaCa-2 cells transfected with PARP1-Flag; mouse anti-Flag and rabbit anti-NUPR1 antibodies; untreated or 24 h with ZZW-115 1.5 uM, 5-FU 10 uM, olaparib 25 uM or 5-FU + olaparib; foci counted with ImageJ

Row | Binder | inhibition of PARP1 enzymatic activity in an acellular PARP1 activity assay with 2 and 4 µM rNUPR1 (26.5% at 2 µM, 48.4% at 4 µM) (recombinant PARP1) [%] | PLA foci/cell (cells treated with 5-FU) (PARP1-Flag) [foci/cell] | PLA foci/cell (cells treated with ZZW-115) (PARP1-Flag) [foci/cell] | PLA foci/cell (control condition) (PARP1-Flag) [foci/cell]
1 | B1 | 48.4 | – | – | –
2 | B2 | – | 94.7 | 12.5 | 59.5

Reference: article PMC9307593
